Values quoted from earlier work, collected in paper PMC4080432.
Where two headings read alike, the source gives them in different places.

Columns and labels:
NapB (Escherichia coli) [1] = biological target: NapB (Escherichia coli) (UniProt P0ABL3)
NapB (Escherichia coli) [2] = biological target: NapB (Escherichia coli) (UniProt P0ABL3); remark: listed apart in the source

Sequence of UniProt P0ABL3 (P0ABL3 28-149): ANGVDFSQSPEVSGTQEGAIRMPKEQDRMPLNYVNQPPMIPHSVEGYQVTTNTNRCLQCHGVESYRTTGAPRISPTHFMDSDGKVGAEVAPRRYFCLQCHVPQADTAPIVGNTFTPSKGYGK

Which results are given for NapA (from UniProt P33937)?
Kd (NapB (Escherichia coli) [1]): 15 µM; Kd (NapB (Escherichia coli) [2]): 32 µM
